According to US20100173362A1 (published 2010):

Target: recombinant human HGF (R&D Systems, Catalog No. 294-HGN-025) (human, UniProt P14210 32-728)
Assay: SPR

Sequence of recombinant human HGF (R&D Systems, Catalog No. 294-HGN-025) (P14210 32-728): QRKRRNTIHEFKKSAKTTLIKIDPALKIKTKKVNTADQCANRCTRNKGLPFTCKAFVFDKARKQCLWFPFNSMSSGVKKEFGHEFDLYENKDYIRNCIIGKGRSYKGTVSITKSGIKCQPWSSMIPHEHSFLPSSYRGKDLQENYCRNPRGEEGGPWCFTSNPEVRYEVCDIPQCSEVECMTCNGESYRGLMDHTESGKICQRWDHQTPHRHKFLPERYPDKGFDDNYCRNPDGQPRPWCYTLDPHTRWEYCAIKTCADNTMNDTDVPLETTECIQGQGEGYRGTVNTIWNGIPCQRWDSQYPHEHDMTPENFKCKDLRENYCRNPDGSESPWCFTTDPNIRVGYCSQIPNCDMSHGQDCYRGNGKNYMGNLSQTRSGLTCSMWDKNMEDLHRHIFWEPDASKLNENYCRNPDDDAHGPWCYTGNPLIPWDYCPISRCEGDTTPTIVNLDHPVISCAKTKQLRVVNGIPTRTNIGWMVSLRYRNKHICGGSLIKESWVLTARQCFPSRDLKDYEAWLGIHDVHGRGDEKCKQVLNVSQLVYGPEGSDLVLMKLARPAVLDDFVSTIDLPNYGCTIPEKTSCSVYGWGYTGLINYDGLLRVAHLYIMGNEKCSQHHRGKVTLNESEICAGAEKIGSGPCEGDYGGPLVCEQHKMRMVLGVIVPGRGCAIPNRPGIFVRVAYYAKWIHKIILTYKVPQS

Binder | Kd [nM]
Hu2B8_Kv3-15.1 / Hu2B8_Hv5-a.1 (antibody, V domains shown) VH: EVQLVQSGAEVKKPGESLRISCKGSGYSFTTYWMHWVRQMPGKGLEWMGEINPTNGHTNYNPSFQGHVTISADKSISTAYLQWSSLKASDTAMYYCARNYVGSIFDYWGQGTLVTVSS VL: EIVMTQSPATLSVSPGERATLSCKASENVVSYVSWYQQKPGQAPRLLIYGASNRNTGIPARFSGSGSGTEFTLTISSLQSEDFAVYYCGQSYNYPYTFGQGTKLEIKR | 0.0269
Chimeric 2B8 / Hu2B8_Hv1-f.1 (antibody, V domains shown) VH: EVQLVQSGAEVKKPGATVKISCKVSGYTFTTYWMHWVQQAPGKGLEWMGEINPTNGHTNYNEKFQGRVTITADTSTDTAYMELSSLRSEDTAVYYCATNYVGSIFDYWGQGTLVTVSS VL: NIVMTQSPKSMSMSVGERVTLSCKASENVVSYVSWYQQKPAQSPKLLIYGASNRNTGVPDRFTGSGSATDFTLTISSVRAEDLADYHCGQSYNYPYTFGGGTRLEIKR | 0.662
Hu2B8_Kv1-39.1 / Hu2B8_Hv1-f.1 (antibody, V domains shown) VH: EVQLVQSGAEVKKPGATVKISCKVSGYTFTTYWMHWVQQAPGKGLEWMGEINPTNGHTNYNEKFQGRVTITADTSTDTAYMELSSLRSEDTAVYYCATNYVGSIFDYWGQGTLVTVSS VL: DIQMTQSPSSLSASVGDRVTITCKASENVVSYVSWYQQKPGKAPKLLIYGASNRNTGVPSRFSGSGSGTDFTLTISSLQPEDFATYYCGQSYNYPYTFGQGTKLEIKR | 0.294
Hu2B8_Kv3-15.1 / Hu2B8_Hv1-f.1 (antibody, V domains shown) VH: EVQLVQSGAEVKKPGATVKISCKVSGYTFTTYWMHWVQQAPGKGLEWMGEINPTNGHTNYNEKFQGRVTITADTSTDTAYMELSSLRSEDTAVYYCATNYVGSIFDYWGQGTLVTVSS VL: EIVMTQSPATLSVSPGERATLSCKASENVVSYVSWYQQKPGQAPRLLIYGASNRNTGIPARFSGSGSGTEFTLTISSLQSEDFAVYYCGQSYNYPYTFGQGTKLEIKR | 0.466
Hu2B8_Kv1-39.1 / Hu2B8_Hv5-a.1 (antibody, V domains shown) VH: EVQLVQSGAEVKKPGESLRISCKGSGYSFTTYWMHWVRQMPGKGLEWMGEINPTNGHTNYNPSFQGHVTISADKSISTAYLQWSSLKASDTAMYYCARNYVGSIFDYWGQGTLVTVSS VL: DIQMTQSPSSLSASVGDRVTITCKASENVVSYVSWYQQKPGKAPKLLIYGASNRNTGVPSRFSGSGSGTDFTLTISSLQPEDFATYYCGQSYNYPYTFGQGTKLEIKR | 0.0147
Hu2B8_Kv3-15.1 / Chimeric 2B8 (antibody, V domains shown) VH: QVQLQQPGAELVKPGTSVKLSCKASGYTFTTYWMHWVNQRPGQGLEWIGEINPTNGHTNYNEKFKSKATLTVDKSSSTAYMQLSSLTSEDSAVYYCARNYVGSIFDYWGQGTTLTVSS VL: EIVMTQSPATLSVSPGERATLSCKASENVVSYVSWYQQKPGQAPRLLIYGASNRNTGIPARFSGSGSGTEFTLTISSLQSEDFAVYYCGQSYNYPYTFGQGTKLEIKR | 0.0055

Continued, values first:

Kd [nM] | Binder
0.0116 | chimeric 2B8 (antibody, V domains shown) VH: QVQLQQPGAELVKPGTSVKLSCKASGYTFTTYWMHWVNQRPGQGLEWIGEINPTNGHTNYNEKFKSKATLTVDKSSSTAYMQLSSLTSEDSAVYYCARNYVGSIFDYWGQGTTLTVSS VL: NIVMTQSPKSMSMSVGERVTLSCKASENVVSYVSWYQQKPAQSPKLLIYGASNRNTGVPDRFTGSGSATDFTLTISSVRAEDLADYHCGQSYNYPYTFGGGTRLEIKR
0.0044 | Chimeric 2B8 / Hu2B8_Hv5-a.1 (antibody, V domains shown) VH: EVQLVQSGAEVKKPGESLRISCKGSGYSFTTYWMHWVRQMPGKGLEWMGEINPTNGHTNYNPSFQGHVTISADKSISTAYLQWSSLKASDTAMYYCARNYVGSIFDYWGQGTLVTVSS VL: NIVMTQSPKSMSMSVGERVTLSCKASENVVSYVSWYQQKPAQSPKLLIYGASNRNTGVPDRFTGSGSATDFTLTISSVRAEDLADYHCGQSYNYPYTFGGGTRLEIKR
0.0136 | Hu2B8_Kv1-39.1 / Chimeric 2B8 (antibody, V domains shown) VH: QVQLQQPGAELVKPGTSVKLSCKASGYTFTTYWMHWVNQRPGQGLEWIGEINPTNGHTNYNEKFKSKATLTVDKSSSTAYMQLSSLTSEDSAVYYCARNYVGSIFDYWGQGTTLTVSS VL: DIQMTQSPSSLSASVGDRVTITCKASENVVSYVSWYQQKPGKAPKLLIYGASNRNTGVPSRFSGSGSGTDFTLTISSLQPEDFATYYCGQSYNYPYTFGQGTKLEIKR
